Reference: the supplement of paper PMC7125110
± gives the standard error. For part of these data: Fewer inactive variants are shown than the library holds.

B1: glmS ribozyme (parent)
chain: AUAAAAGCGCCAGAACUACAGAAAUGUAGUUGACGAGGAGGAGGUUUAUCGAAUUUUCGGCGGAUGCCUCCAAA

Experiments:
Conditions in all cases: with glucosamine-6-phosphate
[1] = variants of: B1; assay: kcat; higher = faster cleavage; RNA array
Procedure, shortened: (§1)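 Glucosamine-6-phosphate (40 μM to 10 mM) in HEPES/KCl/Mg(OAc)2 buffer was flowed over sequenced MiSeq chips, and tiles were imaged over ~14 h. Barcoded ribozyme variants there had been transcribed in situ by E. coli RNA polymerase and were tracked through a hybridised Cy3 probe at 37 °C. One- or two-exponential decay fits to per-tile medians, normalised to baseline and to non-cleaving reference variants, gave kobs. kcat and KM came from weighted Michaelis–Menten fits across concentrations.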

[2] = variants of: B1; assay: KM; higher = weaker cofactor use; RNA array
Procedure, shortened: as §1

[3] = variants of: B1; assay: self-cleavage kobs at 160 uM GlcN6P; higher = faster cleavage; RNA array
Procedure, shortened: as §1

[4] = variants of: B1; assay: self-cleavage kobs at 640 uM GlcN6P; higher = faster cleavage; RNA array
Procedure, shortened: as §1

[5] = variants of: B1; assay: self-cleavage kobs at 2500 uM GlcN6P; higher = faster cleavage; RNA array
Procedure, shortened: as §1

[6] = variants of: B1; assay: self-cleavage kobs at 10000 uM GlcN6P; higher = faster cleavage; RNA array
Procedure, shortened: as §1

[7] = variants of: B1; assay: self-cleavage kobs at 40 uM GlcN6P; higher = faster cleavage; RNA array
Procedure, shortened: as §1

Row | Variant | kcat [1] [s⁻¹] | KM [2] [µM] | self-cleavage kobs at 160 uM GlcN6P [3] [s⁻¹] | self-cleavage kobs at 640 uM GlcN6P [4] [s⁻¹] | self-cleavage kobs at 2500 uM GlcN6P [5] [s⁻¹] | self-cleavage kobs at 10000 uM GlcN6P [6] [s⁻¹] | self-cleavage kobs at 40 uM GlcN6P [7] [s⁻¹]
1 | G44A U55A | 0.000528 ± 5e-05 | 2150 ± 420 | 5.44e-05 ± 2.2e-05 | 0.000113 ± 2.3e-05 | 0.000286 ± 6.8e-05 | 0.000437 ± 6.1e-05 | –
2 | A42G U45A | 0.0167 ± 0.0051 | 303 ± 130 | 0.00634 ± 0.0022 | – | – | – | 0.00181 ± 0.00058
3 | A42G C70U | 0.0228 ± 0.01 | – | 0.00157 ± 0.00029 | 0.00975 ± 0.0019 | 0.0261 ± 0.01 | 0.0178 ± 0.0045 | 0.000696 ± 0.0001
4 | G41C C68U | < 1e-05 | – | – | < 1e-05 | – | – | < 1e-05
5 | G41U U47A | 0.000627 ± 0.00021 | – | 0.000127 ± 3.9e-05 | 0.000232 ± 5.2e-05 | 0.000656 ± 0.00012 | 0.000706 ± 0.00012 | 7.19e-05 ± 1.3e-05
6 | G41U U47G | 0.00121 ± 0.0005 | – | 3.94e-05 ± 1.2e-05 | 0.000221 ± 4.5e-05 | 0.000364 ± 8.6e-05 | 0.00093 ± 0.00013 | 4.35e-05 ± 1.2e-05
7 | G44C U46A | 7.73e-05 ± 1.3e-05 | – | – | – | 0.000108 ± 2.5e-05 | 7.15e-05 ± 9.9e-06 | < 1e-05
8 | G40C U55C | 0.000721 ± 0.00014 | 4590 ± 1400 | 2.05e-05 ± 5.9e-06 | 0.00012 ± 3.6e-05 | 0.000287 ± 8.2e-05 | 0.000483 ± 7.8e-05 | –
9 | A42G A48C | 0.00074 ± 0.00011 | 4500 ± 1200 | – | 9.68e-05 ± 2.1e-05 | 0.000276 ± 8.7e-05 | 0.000506 ± 7.8e-05 | –
10 | G41C G66C | 1.55e-05 ± 2.4e-06 | – | – | < 1e-05 | – | – | < 1e-05
11 | G41C U56A | 0.000159 ± 4.4e-05 | – | – | 2.18e-05 ± 1e-05 | 0.000129 ± 3e-05 | 0.000121 ± 1.5e-05 | –
12 | A42U C68G | 1.72e-05 ± 6.1e-06 | – | – | – | – | – | –
13 | G44C U56A | 7.55e-05 ± 7.5e-06 | 2860 ± 1100 | – | – | 3.9e-05 ± 1.4e-05 | 5.85e-05 ± 6.8e-06 | –
14 | G40U U47A | 0.00153 ± 0.00048 | 1680 ± 730 | 0.000114 ± 2.9e-05 | 0.000565 ± 0.0002 | 0.00134 ± 0.00045 | 0.00115 ± 0.00037 | 6.16e-05 ± 2.8e-05
15 | G44A U54A | 0.000692 ± 0.00012 | 2530 ± 870 | – | 0.000132 ± 3.9e-05 | 0.00051 ± 0.0002 | 0.000538 ± 0.00011 | –
16 | G44A U54C | 0.00159 ± 0.00015 | 8260 ± 990 | – | 0.000114 ± 1.7e-05 | 0.000372 ± 6.7e-05 | 0.000869 ± 0.00017 | –
